The source of these data is IntAct's records for PubMed 36931259.

First the molecules themselves.
B1: 14-3-3 protein sigma (Homo sapiens), P31947 (parent)
chain: MERASLIQKAKLAEQAERYEDMAAFMKGAVEKGEELSCEERNLLSVAYKNVVGGQRAAWRVLSSIEQKSNEEGSEEKGPEVREYREKVETELQGVCDTVLGLLDSHLIKEAGDAESRVFYLKMKGDYYRYLAEVATGDDKKRIIDSARSAYQEAMDISKKEMPPTNPIRLGLALNFSVFHYEIANSPEEAISLAKTTFDEAMADLHTLSEDSYKDSTLIMQLLRDNLTLWTADNAGEEGGEAPQEPQS
partner: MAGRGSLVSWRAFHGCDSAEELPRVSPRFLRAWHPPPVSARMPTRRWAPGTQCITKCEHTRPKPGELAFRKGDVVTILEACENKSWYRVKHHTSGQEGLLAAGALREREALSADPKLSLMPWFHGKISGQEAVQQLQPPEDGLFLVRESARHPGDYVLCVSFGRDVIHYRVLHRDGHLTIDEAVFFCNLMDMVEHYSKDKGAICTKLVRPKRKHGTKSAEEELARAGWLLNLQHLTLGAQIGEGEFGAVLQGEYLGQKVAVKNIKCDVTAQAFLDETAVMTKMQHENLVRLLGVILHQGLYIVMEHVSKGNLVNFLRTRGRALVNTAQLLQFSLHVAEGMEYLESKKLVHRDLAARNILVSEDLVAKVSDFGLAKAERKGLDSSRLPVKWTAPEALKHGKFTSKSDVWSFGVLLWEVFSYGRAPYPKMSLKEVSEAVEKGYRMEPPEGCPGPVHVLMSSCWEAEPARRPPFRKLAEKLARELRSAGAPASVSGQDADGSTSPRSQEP
B2: 14-3-3 protein sigma (Homo sapiens), P31947 (parent)
chain: B1 chain
partner: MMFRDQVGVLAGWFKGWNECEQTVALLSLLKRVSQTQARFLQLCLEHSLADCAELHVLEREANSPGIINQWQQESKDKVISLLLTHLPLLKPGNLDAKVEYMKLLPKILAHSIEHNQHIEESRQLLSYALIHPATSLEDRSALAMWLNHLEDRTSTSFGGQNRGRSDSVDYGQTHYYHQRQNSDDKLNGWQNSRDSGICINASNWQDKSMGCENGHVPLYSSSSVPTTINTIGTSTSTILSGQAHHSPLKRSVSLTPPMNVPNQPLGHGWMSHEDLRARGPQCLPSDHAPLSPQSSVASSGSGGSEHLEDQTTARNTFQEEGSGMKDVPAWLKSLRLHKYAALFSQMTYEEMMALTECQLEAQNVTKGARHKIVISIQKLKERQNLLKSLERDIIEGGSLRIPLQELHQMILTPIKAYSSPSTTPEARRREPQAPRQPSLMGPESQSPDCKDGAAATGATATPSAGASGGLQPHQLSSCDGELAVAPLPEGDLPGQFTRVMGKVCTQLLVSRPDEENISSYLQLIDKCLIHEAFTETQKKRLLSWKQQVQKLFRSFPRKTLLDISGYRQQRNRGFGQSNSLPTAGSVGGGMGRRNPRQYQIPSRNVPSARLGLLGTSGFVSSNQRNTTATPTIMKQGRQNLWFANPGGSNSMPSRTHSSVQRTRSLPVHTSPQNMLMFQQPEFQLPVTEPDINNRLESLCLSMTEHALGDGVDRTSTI
B3: 14-3-3 protein sigma (Homo sapiens), P31947 (parent)
chain: B1 chain
partner: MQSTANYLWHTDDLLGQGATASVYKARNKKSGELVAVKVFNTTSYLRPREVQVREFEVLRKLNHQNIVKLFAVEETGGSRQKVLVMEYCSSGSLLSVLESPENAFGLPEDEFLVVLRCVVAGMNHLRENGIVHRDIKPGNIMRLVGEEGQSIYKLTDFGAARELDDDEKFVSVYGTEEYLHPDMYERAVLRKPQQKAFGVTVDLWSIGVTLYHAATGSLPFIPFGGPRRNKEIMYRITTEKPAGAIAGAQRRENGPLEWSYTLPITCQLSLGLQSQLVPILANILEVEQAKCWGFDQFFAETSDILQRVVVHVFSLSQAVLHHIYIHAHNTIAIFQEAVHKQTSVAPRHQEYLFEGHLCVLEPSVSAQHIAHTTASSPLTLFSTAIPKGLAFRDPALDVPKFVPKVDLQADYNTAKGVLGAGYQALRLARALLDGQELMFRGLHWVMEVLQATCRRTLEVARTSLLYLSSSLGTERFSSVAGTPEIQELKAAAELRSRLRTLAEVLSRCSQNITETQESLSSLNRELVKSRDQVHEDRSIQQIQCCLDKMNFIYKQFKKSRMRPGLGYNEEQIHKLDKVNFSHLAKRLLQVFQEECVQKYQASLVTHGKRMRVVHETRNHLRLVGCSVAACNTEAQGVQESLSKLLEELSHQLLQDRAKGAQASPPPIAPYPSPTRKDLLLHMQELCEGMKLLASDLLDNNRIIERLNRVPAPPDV
B4: 14-3-3 protein sigma (Homo sapiens), P31947 (parent)
chain: B1 chain
partner: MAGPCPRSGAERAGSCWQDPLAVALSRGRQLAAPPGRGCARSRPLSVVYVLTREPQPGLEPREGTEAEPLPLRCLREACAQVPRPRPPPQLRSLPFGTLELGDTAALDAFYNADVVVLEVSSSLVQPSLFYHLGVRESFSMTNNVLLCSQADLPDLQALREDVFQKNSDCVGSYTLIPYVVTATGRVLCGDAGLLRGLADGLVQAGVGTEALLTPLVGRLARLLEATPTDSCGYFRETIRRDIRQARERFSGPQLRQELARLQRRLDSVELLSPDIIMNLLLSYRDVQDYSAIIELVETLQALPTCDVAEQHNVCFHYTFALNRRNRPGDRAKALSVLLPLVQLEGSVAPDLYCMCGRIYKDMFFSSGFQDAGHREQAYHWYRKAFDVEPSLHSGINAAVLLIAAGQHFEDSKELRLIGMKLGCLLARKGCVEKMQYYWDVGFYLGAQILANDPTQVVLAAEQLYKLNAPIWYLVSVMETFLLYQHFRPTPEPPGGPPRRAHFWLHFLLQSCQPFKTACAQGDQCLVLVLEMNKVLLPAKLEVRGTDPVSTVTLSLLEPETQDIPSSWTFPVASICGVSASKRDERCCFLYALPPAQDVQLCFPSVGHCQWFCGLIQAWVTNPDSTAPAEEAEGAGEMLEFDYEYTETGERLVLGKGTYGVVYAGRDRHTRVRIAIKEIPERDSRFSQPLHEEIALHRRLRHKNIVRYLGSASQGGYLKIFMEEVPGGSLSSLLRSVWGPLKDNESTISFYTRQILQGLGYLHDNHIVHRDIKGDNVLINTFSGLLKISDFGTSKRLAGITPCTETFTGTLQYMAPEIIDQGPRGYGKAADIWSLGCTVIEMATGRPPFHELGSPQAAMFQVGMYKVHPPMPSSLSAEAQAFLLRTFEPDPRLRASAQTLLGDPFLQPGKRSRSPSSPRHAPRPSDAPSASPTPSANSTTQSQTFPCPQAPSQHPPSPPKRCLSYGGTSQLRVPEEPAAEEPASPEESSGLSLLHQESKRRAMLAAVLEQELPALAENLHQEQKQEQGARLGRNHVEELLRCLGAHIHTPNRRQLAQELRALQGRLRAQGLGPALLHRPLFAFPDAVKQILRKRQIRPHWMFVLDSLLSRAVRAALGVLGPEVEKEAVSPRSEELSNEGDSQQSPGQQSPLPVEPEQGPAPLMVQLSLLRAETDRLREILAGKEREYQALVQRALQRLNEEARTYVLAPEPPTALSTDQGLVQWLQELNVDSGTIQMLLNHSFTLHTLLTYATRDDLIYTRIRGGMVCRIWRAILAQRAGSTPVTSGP

Variants of B1 are the subject of the first test. The note with it: with matk_human MATK.
For K49E;R56E;V178D, the “effect of a mutation on the interaction” value is “decreasing interaction strength”.

The variants in a further test derive from B2. The note with it: with smag1_human SAMD4A.
In the case of K49E;R56E;V178D, the “effect of a mutation on the interaction” value was “decreasing interaction strength”.

The variants in a further test derive from B3. The note with it: with ikke_human IKBKE.
Consider K49E;R56E;V178D, for which the “effect of a mutation on the interaction” value is on record as “decreasing interaction strength”.

The variants in another test derive from B4. The settings on record: with m3k6_human MAP3K6, O95382.
As for K49E;R56E;V178D, the “effect of a mutation on the interaction” value is given as “decreasing interaction strength”.
